Data from patent US7597894B2, “Compositions and methods employing alternative reading frame polypeptides for the treatment of cancer and infectious disease” (Dendreon Corporation, priority 2003, dated 2009).

B1: HER500rGM-CSF: recombinant fusion protein of hHER-2 extracellular and intracellular domain sequences, OVA octapeptide and rat GM-CSF; positive control (protein, listed as Homo sapiens)
chain: MRAAPLLLARAASLSLGFLFLLFFWLDRSVLAKELARGAASTQVCTGTDMKLRLPASPETHLDMLRHLYQGCQVVQGNLELTYLPTNASLSFLQDIQEVQGYVLIAHNQVRQVPLQRLRIVRGTQLFEDNYALAVLDNGDPLNNTTPVTGASPGGLRELQLRSLTEILKGGVLIQRNPQLCYQDTILWKDIFHKNNQLALTLIDTNRSRACHPCSPMCKGSRCWGESSEDCQSLTRTVCAGGCARCKGPLPTDCCHEQCAAGCTGPKHSDCLACLHFNHSGICELHCPALVTYNTDTFESMPNPEGRYTFGASCVTACPYNYLSTDVGSASIINFEKLGAGGMVHHRHRSSSTRSGGGDLTLGLEPSEEEAPRSPLAPSEGAGSDVFDGDLGMGAAKGLQSLPTHDPSPLQRYSEDPTVPLPSETDGYVAPLTCSPQPEYVNQPDVRPQPPSPREGPLPAARPAGATLERAKTLSPGKNGVVKDVFAFGGAVENPEYLTPQGGAAPQPHPPPAFSPAFDNLYYWDQDPPERGAPPSTFKGTPTAENPEYLGLDVPAAAPTRSPNPVTRPWKHVDAIKEALSLLNDMRALENEKNEDVDIISNEFSIQRPTCVQTRLKLYKQGLRGNLTKLNGALTMIASHYQTNCPPTPETDCEIEVTTFEDFIKNLKGFLFDIPFDCWKPVQKGAPPPPAHHHHHH
B2: HER300: recombinant fusion protein with 289 amino acids of HER-2 membrane distal extracellular domain and OVA257-264; negative control (protein, listed as Homo sapiens)
chain: MRAAPLLLARAASLSLGFLFLLFFWLDRSVLAKELARGAASTQVCTGTDMKLRLPASPETHLDMLRHLYQGCQVVQGNLELTYLPTNASLSFLQDIQEVQGYVLIAHNQVRQVPLQRLRIVRGTQLFEDNYALAVLDNGDPLNNTTPVTGASPGGLRELQLRSLTEILKGGVLIQRNPQLCYQDTILWKDIFHKNNQLALTLIDTNRSRACHPCSPMCKGSRCWGESSEDCQSLTRTVCAGGCARCKGPLPTDCCHEQCAAGCTGPKHSDCLACLHFNHSGICELHCPALVTYNTDTFESMPNPEGRYTFGASCVTACPYNYLSTDVGSASIINFEKLAAPTRSPNPVTRPWKHVDAIKEALSLLNDMRALENEKNEDVDIISNEFSIQRPTCVQTRLKLYKQGLRGNLTKLNGALTMIASHYQTNCPPTPETDCEIEVTTFEDFIKNLKGFLFDIPFDCWKPVQKGAPPPPAHHHHHH

Legend:
[1] = tested on: hHER-2/EL4 (E.HER2) tumor cells; assay: Survival after hHER-2/EL4 (E.HER2) tumor challenge of mice pre-immunized with antigen-pulsed dendritic cells; assay type: in vivo, mouse; conditions: C57BL/6 mice pre-immunized i.p. with antigen-pulsed activated DC, challenged i.p. with hHER-2/EL4 (E.HER2) cells
Experimental: (§1) The hHER-2/E14 tumor cell line was generated by transfecting the mouse EL4 thymoma cell line (ATCC No. TIB-39, Rockville, Md.) with full-length human HER-2 cDNA cloned into the MIRB vector. The hHER-2/B16 tumor cell line was generated by transfecting the mouse B16 melanoma cell line (ATCC No. CRL-6322, Rockville, Md.) with full-length human HER-2 cDNA cloned into the pCR3.1 vector.
(§2) Enriched activated dendritic cells (DCs) were prepared as described (Laus et al., Nature Biotechnology 18:1269-1272 (2000)). Briefly, enriched preparations of activated DC were prepared by incubating female C57BL/6 spleen cells in tissue culture flasks for 2 h at 37° C., removing non-adherent cells, and subsequently culturing the remaining adherent cells for two days in the presence of 1 μM ionomycin (Sigma, St. Louis, Mo.). DC obtained in this manner were pulsed by sixteen hour co-culture with each of the indicated HER-2 ARF polypeptide pools or HER-2 fusion proteins in 1 μM ionomycin, washed two times and injected intraperitoneally (i.p.) into the C57BL/6 mice (2.5×10^5 cells per mouse). Two weeks after the last immunization, mice were challenged with a single i.p. injection of hHER-2/EL4 cells or hHER-2/B 16 cells in 0.1 ml PBS. Mice were monitored daily and their survival recorded.
The effect of pre-immunization with HER-2-ARF polypeptide-pulsed activated DC on suppression of in vivo growth of HER-2-expressing autologous tumors was evaluated in a mouse animal model system. The results of two independent experiments using hHER-2/EL4 cells are shown in FIGS. 1A and 1B, respectively. The results of two independent experiments using hHER-2/B 16 tumor cells are shown in FIGS. 2A and 2B, respectively.

[2] = tested on: CD8 T cell hybridoma B6-H9.B7; assay: T cell hybridoma assay (stimulation of CD8 T cell hybridoma B6-H9.B7 by Ag-pulsed cells); assay type: cell-based, mouse; conditions: untransfected EL-4 tumor cells pre-pulsed with the peptide as stimulators
Experimental: CD8 T cell hybridoma B6-H9.B7, specific for the protective Arf peptide 3h, was isolated from mice immunized with HER-2-derived Arf pool B peptides. FIG. 8D. This hybridoma was stimulated by untransfected EL-4 tumor cells pre-pulsed with the peptide 3h as well as an E.HER2 tumor transfectant in the absence of any externally added Arf peptide.
Arf epitope-specific MHC class I-dependent CD8^+ T cell hybridoma B6.H9-B7 was obtained by fusing thymoma cell line BWZ.36CD8 with splenocytes of mice immunized with HER-2-derived Arf pool B3 peptides. Sanderson et al., Int. Immunol. 6:369-376 (1994). The T cell hybridoma assay was performed as described previously. Karttunen et al., Proc. Natl. Acad. Sci. USA. 88:3972-3976 (1991). Briefly, 10^5 hybridoma cells were incubated in 0.2 ml micro-wells with designated washed Ag-pulsed APC. Stimulation of B6.H9-B7 was visualized after incubation with chlorophenol red B-galactoside (expressed in relative light units). FIG. 8E.

[3] = tested on: hHER-2/B16 (B16.HER2) tumor cells; assay: Survival after hHER-2/B16 tumor challenge of mice pre-immunized with antigen-pulsed dendritic cells; assay type: in vivo, mouse; conditions: C57BL/6 mice pre-immunized with antigen-pulsed DC, challenged with hHER-2/B16 cells
Experimental: as §1
as §2, with “Two weeks after the last immunization, mice were challenged with a single i.p. injection of hHER-2/EL4 cells or hHER-2/B 16 cells in 0.1 ml PBS.” left out
The effect of pre-immunization with HER-2-ARF polypeptide-pulsed activated DC on suppression of in vivo growth of HER-2-expressing autologous tumors was evaluated in a mouse animal model system. […]

[4] = tested on: mPAP/B16 (B16.mPAP) tumor cells; assay: Survival after challenge with B16 cells expressing an irrelevant antigen (mouse PAP); assay type: in vivo; conditions: C57BL/6 mice pre-immunized with antigen-pulsed DC, challenged with B16 cells expressing irrelevant antigen mouse PAP

Molecule | protection against tumor challenge / survival (prevention of in vivo tumor growth) [1] | stimulation of CD8 T cell hybridoma B6-H9.B7 [2] | protection against tumor challenge / survival [3] | protection against tumor challenge / survival [4]
RHEAAAPCQSRDPPG (Made in a lab from synthetic material) [3h] | strong protective capabilities | stimulated | – | –
VHRHRHEAAAPCQSR (Made in a lab from synthetic material) [3g] | strong protective capabilities | – | – | –
B1 | prevented tumor growth | – | protection | no protection
B2 | had little effect | – | – | –
